# Experimental data reported in the nanobody polyreactivity screen of Harvey et al. (2022).
# Test: yeast display, Sf9 membrane polyspecificity reagent, FACS + sequencing; frameworks hold sequencing errors
# How it was run: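 A synthetic nanobody library was expressed on Saccharomyces cerevisiae BJ5465 by galactose induction for 36–48 hours. The library was stained for 1 hour at 4 °C with 10% biotinylated, detergent-solubilized Sf9 membrane reagent and enriched with streptavidin microbeads before FACS. Low and high (top ~1%) gates were set on anti-HA fluorescence for expression and streptavidin fluorescence for reagent binding, and each polyreactivity label reflects the gate of origin.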
row,Sequence,polyreactivity (PSR sort gate)
1,QVQLVESGGGLVQAGGSLRLSCAASGSTFDNYVMGWYRQAPGKERELVAAISRRGGNTYYADSVKGRFTISRDNAKNTVYLQMNSLKPEDTAVYYCAADPYGYGHWGDYWGQGTQVTVSS,low polyreactivity
2,QVQLVESGGGLVQAGGSLRLSCAASGSTFDPNVMGWYRQAPGKERELVAGITWRGGRTYYADSVKGRFTISRDNAKNTVYLQMNSLKPEDTAVYYCNAEDWTRKYDYWGQGTQVTVSS,high polyreactivity
3,QVQLVESGGGLVQAGGSLRLSCAASGSTFDPYGMGWYRQAPGKERELVAAITSSGRTNYADSVKGRFTISRDNAKNTVYFQMNSLKPEDTAVYYCATRKERYFYRCYEYWGQGTQVTVSS,low polyreactivity
4,QVQLVESGGGLVQAGGSLRLSCAASGSTFDQYGMGWYRQAPGKERELVAAITSVGGTNYADSVKGRFTISRDNAKNTVYLKMNSLKPEDTAVYYCAAGSVSQYDSWGQGTQVTVSS,low polyreactivity
5,QVQLVESGGGLVQAGGSLRLSCAASGSTFDRYTMGWYRQAPGKERELVAAISISGGSTYYADSVKGRFTISRDNAKNTVYLQMNSLKPEDTEVYYCAARLDTVTDYYYWGQGTQVTVSS,low polyreactivity
6,QVQLVESGGGLVQAGGSLRLSCAASGSTFDSNAMGWYRQAPGKERELVAASDWSGGSTYYADSVKGRFTISRDNAKNTVYLQMNSLNPEDTGVYYGDADDSSINYGDFDYWGQGTQVTVTS,low polyreactivity
7,QVQLVESGGGLVQAGGSLRLSCAASGSTFDSNDMGWSRQAPGKERELVAAITWSGGSTYYADSVKGRFTISRDNAKNTVYLQMNSLKPEDTAVYYCAATSGRAFKYDYWGQGTQVTVSS,high polyreactivity
8,QVQLVESGGGLVQAGGSLRLSCAASGSTFDSNVIGWYRQAPGKERELVAAITWSGGSTYYADSVKGRFTISRDNAKNTVYLQMNSLKPEDTAVYYCAARHYPRYGNRRMYYWGQGTQVTVSS,high polyreactivity
9,QVQLVESGGGLVQAGGSLRLSCAASGSTFDSNVMGCYRQAPGKERELVAVINGSGSNTYYADSVKGRFTISRDNAKNTVYLQMNSLKPEDTAVYYCAARVYVSRSKRLNYWGQGTQVTVSS,high polyreactivity
10,QVQLVESGGGLVQAGGSLRLSCAASGSTFDSYAMGWSRQAPGKERELVAAISYSGGSTYYADSVKGRFTISRDNAKNTVYLQMNRLKPEDTAVYYCAASSYNHKRYPSPYDYWGQGTQVTVSS,high polyreactivity
11,QVQLVESGGGLVQAGGSLRLSCAASGSTFDSYAMGWYRQAPGKERELVAAISYNGSSTYYADSVKGRFTISRDNAKNTVYLQMNSLKPEDTAVYYCAAAPGFSAGHHDYWGQGTQVTVSS,low polyreactivity
12,QVQLVESGGGLVQAGGSLRLSCAASGSTFDSYAMGWYRQAPGKERELVASITSNDGSTSYADSVKGRFTISRDNAKNTVYLQMNSLKPEDTAVYYCATTFQYYWFSLYDYWGQGTQVTVSS,low polyreactivity
13,QVQLVESGGGLVQAGGSLRLSCAASGSTFDSYGMGWYRLAPGKERELVAPSTSRGASTNYADSVKGRFTISRDTAKNTVYLQMTSLKPEDTAVYYCNREVPWWLYKYDGHDYWGQATQVTVSS,low polyreactivity
14,QVQLVESGGGLVQAGGSLRLSCAASGSTFDTNAMGWYRQAPGKERELVATITSIGGSTYADSVKGRFTISRDNAKNTVYLQMNSLKPEDTAVYYCATDYVEIDYDYDYWGQGTQVTVSS,low polyreactivity
15,QVQLVESGGGLVQAGGSLRLSCAASGSTFDVNAMGWYRPAPGKERELVAAISWNSGSTYYADSVKGRFTISRDNAKNTVYLQLNSLKPEDTAVYYCAATYGTGRRSKYGYWGQGTQVTVSS,high polyreactivity
16,QVQLVESGGGLVQAGGSLRLSCAASGSTFDYNAMGCYRQAPRKERELDAVIRSGGTTYYADSVKGRFTISRVNAKNTVYLQMNSLKPEDTAVYYCAASFQRRAGSYGGSRRYGYLGQGTQVTVSS,high polyreactivity
17,QVQLVESGGGLVQAGGSLRLSCAASGSTFDYNAMGWYRQAPGKERELVAAISRGGNTDYADSVKGRFTISRDNAKNSVYLQMNSLKPEDTAVYYCAADALLEWFDVAYFAYEYWGQGTQVTVSS,low polyreactivity
18,QVQLVESGGGLVQAGGSLRLSCAASGSTFDYNTMGWYRQAPGKERELVAAISWRGVSTYYADSVKGRFTISRDNAKNTVYLQMNSLKTEDTAVYYCNAVHHYPEHIGGGYWGQGTQVTVSS,low polyreactivity
19,QVQLVESGGGLVQAGGSLRLSCAASGSTFDYNTMGWYRQAPGKERELVAGIRSSGARTYYADSVKGRFTISRDNAKNTVYLQMNSLKPEDTAVYYCAKTDGFYRGYGYWGQGTQVTVSS,low polyreactivity
20,QVQLVESGGGLVQAGGSLRLSCAASGSTFDYYAMGWYREAPGKERELVAGITSDGSTYYADSVKGRFTISRDNAKNTVYLQMNSLKPEDTAVYYCNKAPYHWPYEYWGQGTQVTVSS,low polyreactivity
21,QVQLVESGGGLVQAGGSLRLSCAASGSTFDYYAMGWYRQAPGKERELVAAISSGGSTNYADSVKGRFTISRDNAKNTVYLQMNSLKPEDTAVYYCAAVALWDYKFFYYLLYDYWGQGTQVTVSS,low polyreactivity
22,QVQLVESGGGLVQAGGSLRLSCAASGSTFDYYAMGWYRQAPGKERELVAAISSSGSSTYYADSVKGRFTISRDNAKNTVYLQMNSLKPEDTAVYYCNALSNVPYDYWGQGTQVTVSS,low polyreactivity

row,Sequence,polyreactivity (PSR sort gate)
1,QVQLVESGGGLVQAGGSLRLSCAASGSTFDYYAMGWYRQAPVKERELVAAITGTGGSTYYADSVKGRFTISRDNAKNTVYLQINRLKPEDTAVYYCAADTYLGWSYYWGQGTQVTVSS,high polyreactivity
2,QVQLVESGGGLVQAGGSLRLSCAASGSTFDYYTMGWYRQAPGKERELVAAISRSGGSTRYADSVKGRFTISRDNAKNTVYLQMNSLKPEYTAVYYCAAKLWRYYHYDYWGQGTQVTVSS,low polyreactivity
3,QVQLVESGGGLVQAGGSLRLSCAASGSTFDYYVMGWYRQAPGKERELVAAISLSGGSTYYADSVKGRFTISRDNAKNTVYLQMNSLKPEHTAVYYCAAQTKPASRVTYYWYYYWGQGTQVTVSS,high polyreactivity
4,QVQLVESGGGLVQAGGSLRLSCAASGSTFEAYAMGWYRQAPGKERELVAAITRGSTYYADSVKGRFTISRDNAKNTVYLQMNSLKPEDTAVYYCNVDYSYNSGYDYWGQGTQVTVSS,high polyreactivity
5,QVQLVESGGGLVQAGGSLRLSCAASGSTFEAYAMGWYRQGPGKERELVAAINFTGGRTYYADSVKGRFTISRDNAKNTVYLQMNSLKPEDTAVYYCAARKWGVPYIDNDYWGQGTQVTVSS,low polyreactivity
6,QVQLVESGGGLVQAGGSLRLSCAASGSTFEDYPLGWYRQAPGKERELVAAISHIGGSTYYADSVKGRFTISRDNAKNTVYLQMNSLKPEDTAVYYCAKGGFSSKFDYWGQGTQVTVSS,low polyreactivity
7,QVQLVESGGGLVQAGGSLRLSCAASGSTFEIYAMGWYRQAPGKERELVAAISSGGSTNYADSVKGRFTISRDNAKNTVYLQMNSLKPEDTAVYYCVYAIQFDYWGQGTQVTVSS,low polyreactivity
8,QVQLVESGGGLVQAGGSLRLSCAASGSTFEQYAMGWYRQAPGTERELVASISTGGGRTYYADSVKGRFTISRDNAKYTVYLQMNSLKPEETAVFYCNKRYRGYKTGYSRFDYWVQGTQVTVSS,low polyreactivity
9,QVQLVESGGGLVQAGGSLRLSCAASGSTFERYVMGWYRQAPGTERELVAAISRSGGTTYYADSVKGRFTISRDNAKNTVYLHMNSLKPEDTAVYYCAARYSVRGSQRPIYYYWGQGTQVTVSS,high polyreactivity
10,QVQLVESGGGLVQAGGSLRLSCAASGSTFESNAMGWSRPAPGKEREFVAAITSGGSTDYADSVKGRFKISRDNAKNTVYLQMNSLKPEDTAVYYCAKGTFDLHYRKRYNYWGQGTQVTVSS,low polyreactivity
11,QVQLVESGGGLVQAGGSLRLSCAASGSTFESNAMRWYRQAPGKERELVAAISRGGNTYYADSVKGLFTISRDNAKYTVYLQMHSLKPEDTAVYYCNVDRGNPVPPSEYWGQGTKVTVSS,low polyreactivity
12,QVQLVESGGGLVQAGGSLRLSCAASGSTFESYDMGWYRQAPGKERELVAAIDWSGGITYYADSVKGRFTISRDNAKNTVYLQMNSLKPEDTAVYYCNAGPYWWYYGEDYWGQGTQVTVSS,low polyreactivity
13,QVQLVESGGGLVQAGGSLRLSCAASGSTFESYDMGWYRQAPGNERELVAAIDWSGGITYYADSVKGRFTISRDNAKNTVYLQMNSLKPEDTAVYYCNADWFVRYPKRVYWAEYDYWGQGTQVTVSS,low polyreactivity
14,QVQLVESGGGLVQAGGSLRLSCAASGSTFETNAMGWYRPAPGKERELVAAIRWSTGNTYYADSVKGRFTISRDNAKNTVYLQMNSLKPEDTEVYYCAAYKGKHYIEGYWGQGTQVTVSS,low polyreactivity
15,QVQLVESGGGLVQAGGSLRLSCAASGSTFETYAMGWYRQAPGKERELVAVITSDGSTNYADSVKGRFTISRDNAKNTVYLQMNSLKPEDTAVYYCNADYGFYVPGYPIYWIYEYWGQGTQVTVSS,low polyreactivity
16,QVQLVESGGGLVQAGGSLRLSCAASGSTFEVNAMGWYRQAPGKERELVATITRSGGSTYYADSVKGRFTISRDNAKNTVYLQMNSLKPEDTAVYYCNAMWELKWGQGTQVTVSS,low polyreactivity
17,QVQLVESGGGLVQAGGSLRLSCAASGSTFEVYTMGWYRQAAGKERELVADITWSGGNTYYADSVKGRFTISRDNAKNTVYLQMNSLKPEDTAVYYCAADYYHKTVYWYDYWGQGTQVTVSS,low polyreactivity
18,QVQLVESGGGLVQAGGSLRLSCAASGSTFEWYTMGWYRQAPGKERELVAAINGGGSTKYADSVKGRFTISRDNAKKTVYLQMNSLKPEDTAVYYCNLKYGMYWGQGTQVTVSS,high polyreactivity
19,QVQLVESGGGLVQAGGSLRLSCAASGSTFEYNAMGWYRQAPGKERELVASSTNYADSVKGRFTISRDNAKNTVYLQMNSLKPDDTEVYYCARDRYYTREWYWYRHDHWGQGTQVTVSS,low polyreactivity
20,QVQLVESGGGLVQAGGSLRLSCAASGSTFEYYAMGSYRQAPGKERELVATISIDGRTNYADSVKGRFTISRDNAKNTVYLQMNSLKPEDTAVYYCAARPYWRQRYDYWGQGTQVTVSS,low polyreactivity
21,QVQLVESGGGLVQAGGSLRLSCAASGSTFEYYAMGWYRQAPGKERELVAAITGSGDNTYYADSVKGRFTISRDNAKNTVYLQMNSLKPEDTAVYYCAATMRVKGQYGRMYYWGQGTQVTVSS,high polyreactivity
